target: HLA-B*44:05 (Homo sapiens, UniProt P01889, A223V/A65T/A93T/A95T/D201E/D98Y/E176V/E187L/E204Q/E69K/G107R/H137Y/K202T/L105A/L119I/N104T/N87E/Q56L/Q94N/R106L/R155S/R180D/S101N/S121R/S35A/S48T/T118I/V36M/W191S/Y91S); test: MHC binding assay (UV-ligand exchange, β2m ELISA, peptide exchange yield); settings: binding to HLA-B*44:05
Procedure, shortened: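 Binding is read as exchange yield, i.e. stabilized complex remaining after UV cleavage of a photolabile ligand in the presence of the candidate peptide. Streptavidin-captured monomers (100-fold dilution) are probed with HRP-anti-β2m, 1h at 37° C, TMB, A450. Standard curve: HLA-A*02:01/MLA-001 monomers at 15-500 ng/ml.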

Substance | Peptide exchange (MHC class I binding score, peptide exchange yield)
211 (LEMLDAHRL; listed as Homo sapiens) [compound 211] | +++ (>50 = +++)
351 (EEGRVYVY; listed as Homo sapiens) [compound 351] | ++ (>20% = ++)
379 (AENRVGKMEA; listed as Homo sapiens) [compound 379] | ++ (>20% = ++)
431 (QELLDFTNW; listed as Homo sapiens) [compound 431] | ++++ (>75% = ++++)
326 (RELLDFSSW; listed as Homo sapiens) [compound 326] | ++++ (>75% = ++++)
424 (EEHVYESIIRW; listed as Homo sapiens) [compound 424] | +++ (>50 = +++)
240 (MELQVSSGF; listed as Homo sapiens) [compound 240] | +++ (>50 = +++)
264 (RELIKAIGL; listed as Homo sapiens) [compound 264] | +++ (>50 = +++)
331 (KELEATKQYL; listed as Homo sapiens) [compound 331] | +++ (>50 = +++)
186 (EEIFAHLGL; listed as Homo sapiens) [compound 186] | +++ (>50 = +++)
418 (GEPRKLLTQDW; listed as Homo sapiens) [compound 418] | +++ (>50 = +++)
452 (NEVDGEYRY; listed as Homo sapiens) [compound 452] | +++ (>50 = +++)
412 (EESFDSKFY; listed as Homo sapiens) [compound 412] | +++ (>50 = +++)
407 (MEFQNTQSY; listed as Homo sapiens) [compound 407] | +++ (>50 = +++)
300 (KQTEATMTF; listed as Homo sapiens) [compound 300] | ++ (>20% = ++)
160 (AEIATTGQLY; listed as Homo sapiens) [compound 160] | +++ (>50 = +++)
359 (NEFRRKLTF; listed as Homo sapiens) [compound 359] | +++ (>50 = +++)
239 (DEDYTYLIL; listed as Homo sapiens) [compound 239] | ++ (>20% = ++)
323 (SETAVVNVTY; listed as Homo sapiens) [compound 323] | ++++ (>75% = ++++)
96 (MDELEEGESY; listed as Homo sapiens) [compound 96] | + (>10% = +)
296 (AETIFIVRL; listed as Homo sapiens) [compound 296] | ++ (>20% = ++)
454 (SESSSAFQF; listed as Homo sapiens) [compound 454] | +++ (>50 = +++)
178 (MEGAALLKIF; listed as Homo sapiens) [compound 178] | +++ (>50 = +++)

Substance | Peptide exchange (MHC class I binding score, peptide exchange yield)
242 (CDAQIQYSY; listed as Homo sapiens) [compound 242] | +++ (>50 = +++)
328 (HENGVLTKF; listed as Homo sapiens) [compound 328] | ++ (>20% = ++)
275 (GEQPPEGQW; listed as Homo sapiens) [compound 275] | +++ (>50 = +++)
392 (TEVSVLLLTF; listed as Homo sapiens) [compound 392] | +++ (>50 = +++)
402 (IETSSEYFNF; listed as Homo sapiens) [compound 402] | +++ (>50 = +++)
389 (DEQRRQNVAY; listed as Homo sapiens) [compound 389] | ++ (>20% = ++)
64 (EEYQDSFERY; listed as Homo sapiens) [compound 64] | ++ (>20% = ++)
52 (EDNPSGHTY; listed as Homo sapiens) [compound 52] | ++ (>20% = ++)
423 (KEAINLLKNY; listed as Homo sapiens) [compound 423] | +++ (>50 = +++)
260 (VELMFPLLL; listed as Homo sapiens) [compound 260] | +++ (>50 = +++)
312 (KEWEREKAVSL; listed as Homo sapiens) [compound 312] | +++ (>50 = +++)
26 (EESSSPVDEY; listed as Homo sapiens) [compound 26] | ++ (>20% = ++)
361 (EDASLMGLY; listed as Homo sapiens) [compound 361] | ++ (>20% = ++)
311 (REKDLPNYNW; listed as Homo sapiens) [compound 311] | ++++ (>75% = ++++)
243 (VEQINISQDW; listed as Homo sapiens) [compound 243] | ++++ (>75% = ++++)
409 (QEAKPRATW; listed as Homo sapiens) [compound 409] | +++ (>50 = +++)
137 (EKGLISAF; listed as Homo sapiens) [compound 137] | ++ (>20% = ++)
370 (EEVLLANALW; listed as Homo sapiens) [compound 370] | +++ (>50 = +++)
404 (AEREQVIKL; listed as Homo sapiens) [compound 404] | ++++ (>75% = ++++)
97 (ELVHMINW; listed as Homo sapiens) [compound 97] | ++ (>20% = ++)
444 (SESALQTVI; listed as Homo sapiens) [compound 444] | +++ (>50 = +++)
180 (EEHSSKLQTSL; listed as Homo sapiens) [compound 180] | ++++ (>75% = ++++)
148 (KESDAGRYY; listed as Homo sapiens) [compound 148] | +++ (>50 = +++)
